pKd: −log10 of the molar value.
Tests used:
Experiment in all cases: BLI
[1] = target: human ACE2 polymorphism K26R (rs4646116) (human) (UniProt Q9BYF1)
[2] = target: truncated human ACE2 (residues 19-613 with a C-terminal AviTag and 6xHis-tag), biotinylated (human) (UniProt Q9BYF1)
[3] = target: human ACE2 polymorphism S19P (rs73635825) (human) (UniProt Q9BYF1)

Substance | pKd [1] | t1/2 [2] [min] | pKd [3]
SARS-CoV-2 Omicron BA.2 RBD (from UniProt P0DTC2) (domain or fragment) | 8.29 | 2.7 | 8.30
SARS-CoV-2 RBD Alpha (B.1.1.7), N501Y (from UniProt P0DTC2) (domain or fragment) |  | 5.49 | 
SARS-CoV-2 RBD Beta (B.1.351) (from UniProt P0DTC2) (domain or fragment) |  | 2.75 | 
SARS-CoV-2 RBD Gamma (P.1) (from UniProt P0DTC2) (domain or fragment) |  | 3.58 | 
SARS-CoV-2 ancestral RBD recombinant protein (from UniProt P0DTC2) (domain or fragment) |  | 1.39 | 

Source: article doi:10.1101/2022.07.07.22277364
